The record followed here is paper PMC7308389.

The assay has as its target muscarinic acetylcholine receptor type 1 (M1R) (human) (UniProt P11229).
Sequence of UniProt P11229 (P11229 whole entry): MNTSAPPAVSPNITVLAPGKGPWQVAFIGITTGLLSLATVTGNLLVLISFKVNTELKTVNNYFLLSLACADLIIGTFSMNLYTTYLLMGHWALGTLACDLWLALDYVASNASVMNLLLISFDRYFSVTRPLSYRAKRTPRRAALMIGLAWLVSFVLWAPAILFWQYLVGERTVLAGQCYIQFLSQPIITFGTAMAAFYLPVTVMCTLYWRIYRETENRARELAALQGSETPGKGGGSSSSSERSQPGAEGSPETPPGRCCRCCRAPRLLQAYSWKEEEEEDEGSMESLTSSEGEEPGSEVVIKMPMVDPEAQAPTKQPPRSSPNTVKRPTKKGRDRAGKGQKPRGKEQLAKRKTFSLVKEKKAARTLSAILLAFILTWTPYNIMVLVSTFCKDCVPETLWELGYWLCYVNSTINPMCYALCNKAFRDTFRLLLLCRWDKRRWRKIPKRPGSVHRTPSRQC

“Gi3_Δ5 (Gαi3 with the last five residues truncated, with added Gβγ) (from UniProt P08754 1-349; P62873 1-340; P59768 1-71) (complex)”: the M1R-induced [3H]GDP release from Gi3 Δ5 (Fig. 3c) (% GDP release) came to 20.
